Assay results from the nanobody polyreactivity screen of Harvey et al. (2022).

Assay: yeast display, Sf9 membrane polyspecificity reagent, FACS + sequencing; frameworks hold sequencing errors
How it was run: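 Galactose induction of a Saccharomyces cerevisiae BJ5465 synthetic nanobody display library ran 36–48 hours. The cells were then stained for 1 hour at 4 °C with 10% biotinylated, detergent-solubilized Sf9 membrane reagent, pulled down on streptavidin microbeads and FACS-sorted into low and high (top ~1%) gates on expression and reagent-binding fluorescence. Labels for polyreactivity follow the gate of origin.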

| Sequence | polyreactivity (PSR sort gate) |
| --- | --- |
| QVQVVESGGGLVQAGGSLRLSCAASGGTDYYYAMGWYRQAPGKERELFAAITESGGSTYYADSVKARYTISRDNAKTTVYVQMNSLKPEDTAVYYCNADWRRWYIFSYDYWGQGTQVTVSS | low polyreactivity |
| QVQVVESGGGLVQAGGSLRLSCAASGLISWLYVMGWYRQAPGKERELVAAIRYSGGRTYYADSVKGRFTISRDNAKNTDYLQMHSLKPEDTAVYYCNALPWALYDSTSIYYYWGQGTQVTVSS | low polyreactivity |
| QVQVVESGGGLVQAGGSLRLSCAASGRIFNYNAMGWYRQAPGKERELVAAITRSGGSTYYADSVKGRFTISRDNAKNTVFLQMNSLKPEDTAVYYCNKRYIPWAYDYWGQGTQVTVSS | high polyreactivity |
| QVQVVESGGGLVQAGGSLRLSCAASGRILYPYTMGWYRQAPGKERELVAAISYSGGRTYYADSVKGRFTISRDNAKNTVYLQMNRLKPEDTAVYYFNAVFRVRGASQFDYWGQGTQVTVSS | high polyreactivity |
| QVQVVESGGGLVQAGGSLRLSCAASGRTFFFYAMGWYRQAPGKERELVAGITSRGTRTYYADSVKGRFTISRDNAKNTVYLQMNSLKPEDTAVYYCATDDSRDWLNYWGQGTQVTVSS | low polyreactivity |
| QVQVVESGGGLVQAGGSLRLSCAASGRTFGPYAMGWFRQAPGKEREFVAAISYSGGSTYYADSVKWRFTISRDNAKNTVYLQMNSLKPEDTAVYYCAAEGDYYDFISPPLDYWGQGTQVTVAS | low polyreactivity |
| QVQVVESGGGLVQAGGSLRLSCAASGRTFIGNAMGWYRQAPGKERELVAAMSRSGGSTSYADSVKGRFTISRDNAKNTVYLQMNSLKPEDTAVYYCAKGYRGYSYGYWGQGTQVSVSS | high polyreactivity |
| QVQVVESGGGLVQAGGSLRLSCAASGRTFRKNAMGWYRQAPGKERELVAAISSGGGSTYYADSVKGRFTISRDNAKNSDYLQINSLKPEDTAVYYCAVLVWYYDGYYSSYDYWGQGTQVTVSS | high polyreactivity |
| QVQVVESGGGLVQAGGSLRLSCAASGSIFGRYAMGWYRQAPGKERELVAGITRGGSPYYADSVKGRFTISRDNAKNTVYLQMNSLKPEDTAVYYCNRAARYGEYDYWGQGTQVTVSS | high polyreactivity |
| QVQVVESGGGLVQAGGSLRLSCAASGSIFHNNAMGWYRQAPGKERELVASITSRGGSTYYADSVKGRFTISRDNAKNTVYLQMNSLKPEDTAVYYCAARPYARVKTHGYWGQGTQVSVSS | low polyreactivity |
| QVQVVESGGGLVQAGGSLRLSCAASGSTFPVYAMGWYRQAPGKERELVAAISRSGASTYADSVKGRFTISRDNAKNTVYLQMNSLKPEDTAVYYCNKDPGNVSSYTGGGYWGQGTQVTVSS | low polyreactivity |
| QVQVVESGGGLVQAGGSLRLSCAASGSTFRYYAMGWYRQAPGKERELVAGISKVGGRTYADSVKGRFTISRDNAKYTVYLQMNSLKTEDTAVYYCAADAVRRTPGYDYWGHGTQVTVSS | high polyreactivity |
| QVQVVESGGGLVQAGGSLRLSCAASGSTFSSYVMGWYRQATGKERELVAAISSIGGSTYYADSVKGRFTISRDNAKITVYLQMNSLKPEDTAVYYCAAEPPGSTYEGGYWGQGTQVTVSS | low polyreactivity |
| QVQVVESGGGLVQAGGSLRLSCAPSGRIFTIYVMGWYRQAPGKERELVATITYSSGSTTYADSVKGRFTISRDNAKNTVYLQMNSLKPEDTAVYYCAKKYYTGYGYWGQGTQVTVSS | low polyreactivity |
| QVQVVESGGGLVQAVGSLRLSCAASGRIFRGNAMGWDRQAPRKERELVAAISRRSGSTYYADSVKGRFTISRDNAKNTVYLQMNSLIPEDTAVYYCAATSSLGDFSYDSWGQGTQVTESS | high polyreactivity |
| QVQVVESGGGLVQPGGSLRLSCAASGSTFGGKAMGWYRQATGKERELVAGITSSGTSTYYADSVKGRFTISRDNAKNTVFLQMNSLKPEDTAVYYCATDEAVESYGFELFDYWGQGTQVTVSS | low polyreactivity |
| QVQVVESGGGLVQPGGSLRVSCAASGSTFIAYVKGWSRQAPGKEWELVAAISWSGSNTYYADSVKGRFTISRDNAKITVYFQMNCLKPEDTAVYYCNARSFAPDKKYDYWGQGTQVTVSS | low polyreactivity |
| QVRLVESAGGIVQAGGSLRLSCAASGRTFSVHAMGWYTQAPGKERELVAAISWDGGSTYYGDSVKGRFTISRDNSKNTVYLQMNSLKPEDTAVYYCYKELYYAYDYWGLGTQVTVSS | low polyreactivity |
| QVRLVESGGGLVQAGGSLRLSCAASGRIFLYNARGWYRQAPGKERELVAAINLSDVDTYYADSVKGRFTISRDNAKNTVYLQMNSLKPEDTAVYYCAADGIYWSTIGYYWGQGTQVTVSS | low polyreactivity |
| QVWLQESGGGLVQACGSLRLSCAASGTISRDIFMGWYRQAPGKEREFVATIAQGGITNYADSVKGRFTISRDNAKNTLYLQMNSVKPGDTAVYYCAARDGNCYWFYYWGQGTQVTVSS | high polyreactivity |
| QVWLQESGGGLVQACGSLRLSCAASGTISRDIFMGWYRQAPGKEREFVATIAQGGITNYADSVKGRFTISRDNAKNTVYLQMNSVKPGDTAVYYCAARDGNCYWFYYGGQGTQVTVSS | high polyreactivity |
| QYQLVESGGGLVQAGGSLRLICAASGRIINKKAMGRYRHAPGKERELVAAITSSGGSTYYADSVKGRFTISRDNAKNTVYLQMNSLKPEDTAVYYCAAYAYGRFGKLNYWGQGTQVTVSS | low polyreactivity |
| QYQLVESGGGLVQAGGSLRLSCAASGSTFRANTMGWYRQAPGKERELVSTITRGTITKYADSVKGRFTISRDNAKNPVYLQMNSLKAEDTAVFDCAVDQAYVRRNWGYTGYVTYDHWGQGTQVTVSS | high polyreactivity |
| QYQLVESGGGLVQAGGSLSLSCAASATTFSAYAMGWYRQAPGKERELVAAISASGGSTYYADSVKGRFTISRDNAKNTVYLQMNSLKPEDNAVYFCNADRWKYELDYCGQGTQVTVSS | high polyreactivity |
| RVQLQESGGGLVQAGGSLRLSCAASGNIFDTDIMGWYRQAPGKESELVASITDGGSTTYADSEKGRFTISRDNAKNTVYLQMNSLKPEDTAVYYCAADQGRYGIIGWDDYWGQGTQVTVSS | low polyreactivity |
| RVQLQESGGGLVQAGGSLRLSCAASGTIFIRGDMGWYRQAPGKEREFVASIDTGSNTYYADSEKGRFTISRDNAKNAVYLQMNCLKPGDTAVYYCVVDYQLSGRLRYWGQGTQVTLSS | low polyreactivity |
| RVQLVESGGGLVQAGGSLRLSCAASGSIFRGYAMGWYRQAPGKERGLVAAITSGGSTNYADSVKGRFTISRDNAKNTVYLQMNSLKPEDTAVYYCAKDLALVAPLSDYWGQGTQVTVSS | low polyreactivity |
